The assay deals with T1, human Ptch-2 (SEQ ID NO:2) (human, UniProt Q9Y6C5 1-1203).
T1 construct: Its length is printed as 1203 residues in some places and 1204 in others; also called hPtch-2; patched-2
T1 sequence: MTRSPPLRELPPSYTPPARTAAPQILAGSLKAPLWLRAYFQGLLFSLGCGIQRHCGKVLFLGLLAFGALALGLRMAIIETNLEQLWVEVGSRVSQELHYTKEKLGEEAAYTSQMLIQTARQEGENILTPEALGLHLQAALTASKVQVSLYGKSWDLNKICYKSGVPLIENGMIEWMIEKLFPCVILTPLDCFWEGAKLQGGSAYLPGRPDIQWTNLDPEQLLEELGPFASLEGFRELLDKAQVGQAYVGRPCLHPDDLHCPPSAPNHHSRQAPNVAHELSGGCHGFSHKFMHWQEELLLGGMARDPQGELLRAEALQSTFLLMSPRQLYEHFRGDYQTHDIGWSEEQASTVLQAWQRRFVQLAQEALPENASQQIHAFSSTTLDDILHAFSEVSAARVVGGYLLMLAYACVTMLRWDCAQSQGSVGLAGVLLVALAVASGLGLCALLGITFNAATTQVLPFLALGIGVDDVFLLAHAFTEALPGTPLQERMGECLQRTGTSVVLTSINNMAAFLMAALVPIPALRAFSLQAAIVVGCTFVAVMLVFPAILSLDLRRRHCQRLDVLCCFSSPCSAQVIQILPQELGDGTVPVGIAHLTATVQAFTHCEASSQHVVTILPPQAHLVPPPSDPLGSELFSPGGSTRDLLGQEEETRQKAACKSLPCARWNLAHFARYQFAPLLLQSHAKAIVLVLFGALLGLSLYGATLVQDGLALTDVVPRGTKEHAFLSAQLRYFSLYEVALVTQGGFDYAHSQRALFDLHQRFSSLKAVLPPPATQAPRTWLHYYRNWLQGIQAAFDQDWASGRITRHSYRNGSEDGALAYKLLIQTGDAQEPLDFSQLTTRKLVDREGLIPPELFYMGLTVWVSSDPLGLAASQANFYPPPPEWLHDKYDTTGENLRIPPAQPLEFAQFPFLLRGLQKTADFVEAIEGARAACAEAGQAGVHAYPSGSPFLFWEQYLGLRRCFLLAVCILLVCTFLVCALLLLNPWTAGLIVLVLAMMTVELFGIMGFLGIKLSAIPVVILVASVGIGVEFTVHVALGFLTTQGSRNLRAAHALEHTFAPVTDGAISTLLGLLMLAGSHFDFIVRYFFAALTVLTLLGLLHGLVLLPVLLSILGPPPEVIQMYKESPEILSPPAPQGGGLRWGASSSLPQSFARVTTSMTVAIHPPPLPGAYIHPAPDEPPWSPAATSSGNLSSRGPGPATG
As to the kind of experiment: Scatchard analysis of displacement of 125I-Shh from 293 cells expressing Ptch-2. On the procedure: As shown on FIG. 7A, binding of ¹²⁵I-Shh can be competed with an excess of Shh, Dhh or Ihh (SEQ ID NOS: 14, 13, and 29, respectively).
To determine whether Ptch-2 is able to bind to the various hedgehog ligands, 293 cells were transfected with Ptch (SEQ ID NO:4) or Ptch-2 (SEQ ID NO:2) using standard procedures. Cells were incubated with 100 pM ¹²⁵I-Shh (19 kD amino terminal fragment of murine Shh (SEQ ID NO:14)) in the presence or absence of excess unlabeled Shh (SEQ ID NO:14) or Dhh (SEQ ID NO:13) for 2 h at room temperature. After equilibrium was reached, the ligand bound cells were centrifuged through a continuous sucrose gradient to separate unincorporated and then counted in a scintillation counter. […] Varying concentrations of cold competitor indicate that the 2 ligands have similar affinity for Ptch (SEQ ID NO:4) and Ptch-2 (SEQ ID NO:2).
On the technique in general: In a radioligand displacement assay an active substance lowers the binding of a labelled ligand.

B1: Ihh (SEQ ID NO:29) (ligand)
chain: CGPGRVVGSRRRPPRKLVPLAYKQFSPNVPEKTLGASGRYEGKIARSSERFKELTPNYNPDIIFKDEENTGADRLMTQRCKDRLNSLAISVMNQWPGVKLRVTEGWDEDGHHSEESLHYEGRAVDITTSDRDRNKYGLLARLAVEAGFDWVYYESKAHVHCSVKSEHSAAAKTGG
notes: also called Indian Hh
For B1, the Kd is 400 pM.

B2: Dhh (SEQ ID NO:13) (ligand)
chain: not shown
notes: also called Desert Hh; Desert hedgehog
Take B2: binding was characterised by a dissociation constant (Kd) of 600 pM.

What is called Kd is the concentration at which binding is half-saturated. A lower Kd goes with higher affinity.

The record behind these values is US20020156245A1 (Genentech, published 2002).
